Where “and” joins values, the source holds several entries; their conditions need not be identical. Equal entries are not always repeated.
Key:
[1] = molecular target: T1, soluble human RGMa (human, UniProt Q96B86 48-422, limits assumed); experiment: SPR (BIAcore);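 note: Anti-HJV antibodies tested for binding against soluble human RGMa by surface plasmon resonance on a BIAcore instrument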
T1 construct: Soluble antigen in BIAcore; also called huRGMa; repulsive guidance molecule A
T1 sequence (looked up): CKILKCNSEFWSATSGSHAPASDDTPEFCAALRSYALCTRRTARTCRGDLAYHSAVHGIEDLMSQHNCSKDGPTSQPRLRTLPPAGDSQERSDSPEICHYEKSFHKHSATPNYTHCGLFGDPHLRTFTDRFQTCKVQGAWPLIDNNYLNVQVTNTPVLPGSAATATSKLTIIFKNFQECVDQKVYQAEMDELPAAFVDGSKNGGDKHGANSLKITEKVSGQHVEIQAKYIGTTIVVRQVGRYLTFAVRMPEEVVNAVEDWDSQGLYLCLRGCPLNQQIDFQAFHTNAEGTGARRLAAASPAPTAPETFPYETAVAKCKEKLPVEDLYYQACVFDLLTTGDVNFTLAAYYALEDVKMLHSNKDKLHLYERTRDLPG
Description: (§1) Binding affinities of the anti-HJV antibodies to soluble human RGMa, Rat RGMa and human RGMc were measured by BIAcore analysis.

[2] = molecular target: T2, soluble human RGMc (human, UniProt Q6ZVN8 36-400); experiment: SPR (BIAcore), soluble hRGMc; summary table
T2 construct: also called huRGMc; soluble hRGMc
T2 sequence: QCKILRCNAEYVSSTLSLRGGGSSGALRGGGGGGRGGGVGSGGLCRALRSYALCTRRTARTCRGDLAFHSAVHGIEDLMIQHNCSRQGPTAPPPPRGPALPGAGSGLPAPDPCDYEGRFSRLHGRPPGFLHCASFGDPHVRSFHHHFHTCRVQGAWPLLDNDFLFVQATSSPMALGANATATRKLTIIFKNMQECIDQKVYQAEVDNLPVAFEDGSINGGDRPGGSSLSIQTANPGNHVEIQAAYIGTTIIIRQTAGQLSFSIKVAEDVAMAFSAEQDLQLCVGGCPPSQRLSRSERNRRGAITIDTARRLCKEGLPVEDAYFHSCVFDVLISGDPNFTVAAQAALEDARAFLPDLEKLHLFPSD

[3] = molecular target: T2, soluble human RGMc; experiment: SPR (BIAcore);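 note: Anti-HJV antibodies, binding affinity to soluble human RGMc measured by BIAcore surface plasmon resonance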
Description: as §1

[4] = molecular target: T3, FcRn; experiment: SPR (BIAcore) at pH 6.0
T3 construct: also called neonatal Fc receptor

[5] = molecular target: T4, soluble rat RGMa (rat, UniProt D4A188 48-421); experiment: SPR (BIAcore);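 note: binding kinetics and affinity of anti-HJV antibodies toward soluble rat RGMa, determined by SPR on a BIAcore instrument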
T4 construct: Soluble antigen in BIAcore
T4 sequence: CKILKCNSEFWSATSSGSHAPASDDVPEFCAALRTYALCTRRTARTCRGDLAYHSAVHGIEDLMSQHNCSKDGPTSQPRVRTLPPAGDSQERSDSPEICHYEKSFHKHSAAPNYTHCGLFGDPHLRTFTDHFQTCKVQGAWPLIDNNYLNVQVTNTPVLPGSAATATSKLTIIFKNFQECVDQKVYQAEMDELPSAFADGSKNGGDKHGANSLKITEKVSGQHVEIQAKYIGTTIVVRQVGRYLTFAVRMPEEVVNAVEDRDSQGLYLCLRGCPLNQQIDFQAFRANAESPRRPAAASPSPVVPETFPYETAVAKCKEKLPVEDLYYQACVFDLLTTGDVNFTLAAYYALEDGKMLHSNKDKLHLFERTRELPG
Description: as §1

[6] = molecular target: T5, membrane-bound human RGMc (human, UniProt Q6ZVN8 36-400); experiment: cell-based or functional assay
T5 sequence: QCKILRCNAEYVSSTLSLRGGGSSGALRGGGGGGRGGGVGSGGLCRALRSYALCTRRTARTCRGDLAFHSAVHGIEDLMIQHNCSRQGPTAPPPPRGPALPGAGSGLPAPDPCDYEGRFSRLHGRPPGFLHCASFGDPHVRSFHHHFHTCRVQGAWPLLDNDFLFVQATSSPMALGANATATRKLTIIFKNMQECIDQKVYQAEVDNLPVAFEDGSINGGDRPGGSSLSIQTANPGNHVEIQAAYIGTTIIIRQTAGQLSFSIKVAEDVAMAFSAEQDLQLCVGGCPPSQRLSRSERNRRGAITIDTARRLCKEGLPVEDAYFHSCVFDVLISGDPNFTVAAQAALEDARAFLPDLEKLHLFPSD

[7] = molecular target: T5, membrane-bound human RGMc; experiment: cell-based or functional assay; remark: listed apart in the source
[8] = molecular target: T4, soluble rat RGMa; experiment: SPR (BIAcore), RGM antigen in solution
[9] = molecular target: T6, membrane-bound human RGMa (human, UniProt Q96B86 169-424); experiment: cell-based or functional assay
T6 sequence (looked up): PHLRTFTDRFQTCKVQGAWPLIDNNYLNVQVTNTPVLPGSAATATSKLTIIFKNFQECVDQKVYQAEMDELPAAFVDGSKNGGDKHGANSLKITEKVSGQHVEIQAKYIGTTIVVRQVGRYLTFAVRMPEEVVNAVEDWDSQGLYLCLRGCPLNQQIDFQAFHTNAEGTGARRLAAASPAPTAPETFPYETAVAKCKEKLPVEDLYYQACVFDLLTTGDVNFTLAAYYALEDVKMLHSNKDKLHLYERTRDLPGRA

Kd [1]: 0.031 nM
koff [1]: 2.7e-05 s⁻¹
kon [1]: 870000 M⁻¹ s⁻¹
Kd [2]: 0.105 nM
koff [2]: 0.00039 s⁻¹
kon [2]: 3.95e+06 M⁻¹ s⁻¹
Kd [3]: 0.105 nM
koff [3]: 0.00039 s⁻¹
kon [3]: 3.95e+06 M⁻¹ s⁻¹
Kd [4]: 2950 nM and 2960 nM
Kd [5]: < 1.5 pM
koff [5]: < 1e-06 s⁻¹
kon [5]: 660000 M⁻¹ s⁻¹
Potency on membrane hRGMc (RGMc/BMP reporter assay), IC50 [6]: 0.37 nM
IC50 (nM), BMP reporter assay for RGMc (BRE-Luc, HEK293) [7]: 0.377 nM
Kd [8]: 0.12 nM
koff [8]: 3.6e-05 s⁻¹
kon [8]: 310000 M⁻¹ s⁻¹
IC50 (nM), BMP reporter assay for RGMa [9]: ~56.5 nM
B1: hHA-008 (antibody, human IgG1, kappa, L234A L235A)
heavy: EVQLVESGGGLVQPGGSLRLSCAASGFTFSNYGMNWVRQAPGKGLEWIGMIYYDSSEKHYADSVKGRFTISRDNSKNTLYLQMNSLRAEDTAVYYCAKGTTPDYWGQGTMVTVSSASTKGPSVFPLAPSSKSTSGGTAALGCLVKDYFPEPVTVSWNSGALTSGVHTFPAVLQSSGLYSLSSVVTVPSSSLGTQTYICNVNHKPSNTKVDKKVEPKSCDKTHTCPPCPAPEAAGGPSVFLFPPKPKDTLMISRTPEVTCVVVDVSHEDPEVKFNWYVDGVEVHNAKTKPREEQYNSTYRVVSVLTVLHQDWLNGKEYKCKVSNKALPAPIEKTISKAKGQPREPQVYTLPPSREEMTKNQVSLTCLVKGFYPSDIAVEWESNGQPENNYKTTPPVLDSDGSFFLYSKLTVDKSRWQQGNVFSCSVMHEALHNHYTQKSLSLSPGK
light: DVVLTQSPLSLPVTLGQPASISCRSSQSLEESDGYTFLHWFQQRPGQSPRLLIYEVSTRFSGVPDRFSGSGSGTDFTLKISRVEAEDVGVYYCFQATHDPLTFGQGTKLEIKRTVAAPSVFIFPPSDEQLKSGTASVVCLLNNFYPREAKVQWKVDNALQSGNSQESVTEQDSKDSTYSLSSTLTLSKADYEKHKVYACEVTHQGLSSPVTKSFNRGEC
notes: hIgG1 L234A, L235A, kappa; also called hHA-008 (hIgG1mut(LALA)/k)
